Measured values: the supplement of paper PMC9170038

System: MS2 coat protein
Experiment: apparent KD of MS2 coat protein; designed switch direction (-1 OFF switch, 1 ON switch): -1; higher = weaker reporter binding
Summary of the method: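 Designed RNA switches sharing common flanks were transcribed on Illumina chips by stalled E. coli RNA polymerase. They were titrated with SNAP-549-labelled MS2 coat protein, from 0.7 or 1.5 nM doubling to 3 µM, in Tris-HCl pH 7.5 buffer with KCl, MgCl2, BSA, DTT, tRNA and Tween-20. Titrations ran without input, with 200 uM small-molecule ligand, or with an oligonucleotide input. The apparent KD of each design is the median over its clusters, after curve-fitting of normalised cluster fluorescence.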

[1] = input ligand: microRNA oligo, concentration not stated
[2] = Eterna round: R95, input ligand: microRNA oligo, concentration not stated
[3] = Eterna round: R95, input ligand: FMN 200 uM
[4] = Eterna round: R95, input ligand: none

Sequence: GUCACAUGGGUAUAGGAUCACAUGAGGAUCACCCAUGUGACUAACAAGCUUUUUGCUCGUCUUAUGUCUAUGUGAAU [Stov1/18-A2] (Eterna round: R97, puzzle: Sensor, turn-off variant 1)
- apparent KD of MS2 coat protein (input ligand: FMN 200 uM): 0.0262 µM
- apparent KD of MS2 coat protein (input ligand: none): 0.0324 µM

Sequence: GUCAGACGAGGAUAUAGAUUUGAUAACAUGAGGAUCACCCAUGUGAUCGAUAGAUCAGAUUUAGAAGGUGUCUGAC [E5/8-B3] (Eterna round: R97, puzzle: Exclusion 5)
- apparent KD of MS2 coat protein (input ligand: FMN 200 uM): 0.403 µM
- apparent KD of MS2 coat protein (input ligand: none): 0.331 µM

Sequence: GUCAGCUCGUCAGGAUAUACAUGCGUGCUUCGGCACGAAUUUAAGAUCACAUGAGGAUCACCCAUGUAGAAGGGACGAGCUGAC [ENG2/3-B1] (Eterna round: R96, puzzle: Exclusion NG 2)
- apparent KD of MS2 coat protein (input ligand: FMN 200 uM): 0.741 µM
- apparent KD of MS2 coat protein [1]: 0.515 µM
- apparent KD of MS2 coat protein (input ligand: none): 0.534 µM

Sequence: GUCAGCUCGUCAGGAUAUACAUGCGUGCUUCGGCACGUAUGAUAGAUCACAUGAGGAUCACCCAUGUAGAAGGGACGAGCUGAU [ENG2/4-B2] (Eterna round: R96, puzzle: Exclusion NG 2)
- apparent KD of MS2 coat protein (input ligand: FMN 200 uM): 0.0166 µM
- apparent KD of MS2 coat protein [1]: 0.01 µM
- apparent KD of MS2 coat protein (input ligand: none): 0.0144 µM

Sequence: GUCAGCUCGUGAGGAUAUACAUGAGGAUCACCCAUGUGAUCAAUAGCAGCUUCGGCUGCAUACAUGUAGAAGGCACGAGCUGAU [ENG2/6-A2] (Eterna round: R96, puzzle: Exclusion NG 2)
- apparent KD of MS2 coat protein [1]: 0.0275 µM

Sequence: GUCAGCUCGUGAGGAUAUACAUGCGUGCUUCGGCACGAAUUUAAGAUCACAUGAGGAUCACCCAUGUAGAAGGUACGAGCUGAC [ENG2/3-C1] (Eterna round: R96, puzzle: Exclusion NG 2)
- apparent KD of MS2 coat protein (input ligand: FMN 200 uM): 0.632 µM
- apparent KD of MS2 coat protein [1]: 0.646 µM
- apparent KD of MS2 coat protein (input ligand: none): 0.387 µM

Sequence: GUCAGCUCGUGAGGAUAUGAACAUGAGGAUCACCCAUGUAAGAUCAAGCUGCUUCGGCAGCAAGUUCAGAAGGUACGAGCUGAU [ENG2/10-C2] (Eterna round: R96, puzzle: Exclusion NG 2)
- apparent KD of MS2 coat protein (input ligand: FMN 200 uM): 0.243 µM
- apparent KD of MS2 coat protein [1]: 0.0933 µM
- apparent KD of MS2 coat protein (input ligand: none): 0.122 µM

Sequence: GUCAGCUCGUGAGGAUAUGCACAUGAGGAUCACCCAUGUAAGAUCAAGCUGCUUCGGCAGCAAGUGCAGAAGGCACGAGCUGAU [ENG2/9-A3] (Eterna round: R96, puzzle: Exclusion NG 2)
- apparent KD of MS2 coat protein (input ligand: FMN 200 uM): 0.148 µM
- apparent KD of MS2 coat protein [1]: 0.179 µM
- apparent KD of MS2 coat protein (input ligand: none): 0.21 µM

Sequence: GUCAUACAUGAGGAUCACCCAUGUAAGGAUAUGCUAGCGGUCGGCUGACUGACUGCUAGCAGAAGGUACAUGAU (puzzle: Exclusion 1)
- apparent KD of MS2 coat protein [2]: 0.0615 µM

Sequence: GUCAUGUCAGGAUAUGCUUAUGAUGGGUGCUCAGACAUGAUGCAGAAGGGACAUGAGGAUCACCCAUGUACUGA [EX4 #15] (Eterna round: R97, puzzle: Exclusion 4)
- apparent KD of MS2 coat protein (input ligand: FMN 200 uM): 0.0848 µM
- apparent KD of MS2 coat protein (input ligand: none): 0.0683 µM

Sequence: GUCCUACAUGAGGAUCACCCAUGUAAGGAUAUGCUAGCGGUCGGAAGACUGACUGCUAGCAGAAGGUACAUGAU [Mat - Mod of JL D79] (puzzle: Exclusion 1)
- apparent KD of MS2 coat protein [2]: 0.0139 µM

Sequence: GUCCUCAUGACAUGAGGAUCACCCAUGUAUUAUUUGUUAACUGAGGAUAUACUCUUAUUUUUUAUGUAGAAGGCAGAUUUGUUC [JR_ExcNG3_Sub021] (Eterna round: R96, puzzle: Exclusion NG 3)
- apparent KD of MS2 coat protein (input ligand: FMN 200 uM): 0.0431 µM
- apparent KD of MS2 coat protein [1]: 0.0277 µM
- apparent KD of MS2 coat protein (input ligand: none): 0.0312 µM

Sequence: GUCCUGGACUAUCACAAGCACAUGAGGAUCACCCAUGUCAUGGGUAGAUCCAUAAAUAAAGAUACUGCUCGUCUUAU [Cac sensor turnoff var1 sub5] (Eterna round: R97, puzzle: Sensor, turn-off variant 1)
- apparent KD of MS2 coat protein (input ligand: FMN 200 uM): 0.177 µM
- apparent KD of MS2 coat protein (input ligand: none): 0.303 µM

Sequence: GUCCUGGUAGGAUAUGAGGUUCACGACAUGAGGAUCACCCAUGUGGCCGUGUCUCAUACUUCAGAAGGACCGACAG [Eternabot (L2) Solution 5] (Eterna round: R97, puzzle: Exclusion 5)
- apparent KD of MS2 coat protein (input ligand: FMN 200 uM): 0.0161 µM
- apparent KD of MS2 coat protein (input ligand: none): 0.0157 µM

Sequence: GUCGCUUUUUGUUUGUUUUACAUGAGGAUCACCCAUGUACGUUGGUUACAAUAAAGUUCCGUGGCGGAUCAAUCUGA [Eternabot (L1) Solution 12] (Eterna round: R97, puzzle: Sensor, turn-off variant 1)
- apparent KD of MS2 coat protein (input ligand: FMN 200 uM): 0.0249 µM
- apparent KD of MS2 coat protein (input ligand: none): 0.0282 µM

Sequence: GUCGGACAUGAGGAUCACCCAUGUGAGGAUAUCCUUUAGAGCUAUUAGUAGAUGCUUAGGAGAAGGCACUAGGG [Eternabot (L2) Solution 17] (Eterna round: R97, puzzle: Exclusion 1)
- apparent KD of MS2 coat protein (input ligand: FMN 200 uM): 0.0939 µM
- apparent KD of MS2 coat protein (input ligand: none): 0.314 µM

Sequence: GUCGUGCGGCUUUGCUGUGCGAGUACAUGAGGAUCACCCAUGUAGGAUAUGGUACGCUUUGCGUGCCAGAAGGGCGUGCGUUGG [salish99_ExNG3_r04_007] (Eterna round: R96, puzzle: Exclusion NG 3)
- apparent KD of MS2 coat protein (input ligand: FMN 200 uM): 0.038 µM
- apparent KD of MS2 coat protein [1]: 0.0286 µM
- apparent KD of MS2 coat protein (input ligand: none): 0.0354 µM

Sequence: GUCGUGUUAGGAUAUUGGCCUUUUAGAUGCACUAAGUGAGACGAGAAGGGACAUGAGGAUCACCCAUGUAAUAA [Eternabot (L1) Solution 69] (Eterna round: R97, puzzle: Exclusion 4)
- apparent KD of MS2 coat protein (input ligand: FMN 200 uM): 0.0474 µM
- apparent KD of MS2 coat protein (input ligand: none): 0.0364 µM

Sequence: GUGAAACAUGAGGAUCACCCAUGUGAGGAUAUGAUUUAGUAAUGGAGACAGUACAUAUUCAGAAGGCACAAUGG [Mat - Mod of JL D76] (puzzle: Exclusion 1)
- apparent KD of MS2 coat protein [3]: 0.0552 µM
- apparent KD of MS2 coat protein [2]: 0.15 µM
- apparent KD of MS2 coat protein [4]: 0.182 µM

Sequence: GUGAAGUAAGGAUAUACAUGAGGAUCACCCAUGUGGAGGAAGGUGAUGGGAGUAGGUAGUAGAAGGUACGAGGA [JR_Exclu3_Sub064] (Eterna round: R96, puzzle: Exclusion 3)
- apparent KD of MS2 coat protein (input ligand: FMN 200 uM): 0.304 µM
- apparent KD of MS2 coat protein [1]: 0.134 µM
- apparent KD of MS2 coat protein (input ligand: none): 0.207 µM

Sequence: GUGAAGUAAGGAUAUACAUGAGGAUCACCCAUGUGGAGGAAGGUGAUGGGAGUAGGUAGUAGAAGGUACGAGGA [JR_Exclu3_Sub064] (puzzle: Exclusion 3)
- apparent KD of MS2 coat protein [3]: 0.115 µM
- apparent KD of MS2 coat protein [2]: 0.159 µM
- apparent KD of MS2 coat protein [4]: 0.201 µM

Sequence: GUGAAGUGAGGAUAUACGAGAGAGGCUGAACCUGGAGAGAAGUAGAAGGCACAUGAGGAUCACCCAUGUUAGGA [JR_Exclu4_Sub021] (puzzle: Exclusion 4)
- apparent KD of MS2 coat protein [2]: 0.038 µM

Sequence: GUGAGACAUGAGGAUCACCCAUGUGAGGAUAUCCGAAGGACCAAAUUAAGAAUAGAAGGGAGAAGGCACAUAAA [Exclusion 1 V6] (puzzle: Exclusion 1)
- apparent KD of MS2 coat protein [3]: 0.128 µM
- apparent KD of MS2 coat protein [2]: 0.0684 µM
- apparent KD of MS2 coat protein [4]: 0.157 µM

Sequence: GUGAGCAGACGGAGAUCCUACAUGAGGAUCACCCAUGUCUCACUAGCUUUUUGCUCGUCUUAUCCUCCUCUGUUCAC [Elimod 24 - Jieux - Sensor, turn-off variant 1] (Eterna round: R97, puzzle: Sensor, turn-off variant 1)
- apparent KD of MS2 coat protein (input ligand: FMN 200 uM): 0.0218 µM
- apparent KD of MS2 coat protein (input ligand: none): 0.0216 µM

Sequence: GUGAUCUAUCAUGUAAUAAACAUGAGGAUCACCCAUGUAGACAAGUUUUUUGCUCGUCUUAUAAUAAGAUAGAUCAC [Antenna 15 - Jieux - Sensor, turn-off variant 1] (Eterna round: R97, puzzle: Sensor, turn-off variant 1)
- apparent KD of MS2 coat protein (input ligand: FMN 200 uM): 0.0163 µM
- apparent KD of MS2 coat protein (input ligand: none): 0.0159 µM

Sequence: GUGCAAUGAGGAUAUACGUUGGUGAACAUCUGUGUGCUCCUACAUGAGGAUCACCCAUGUAGAAGGCAUGUCAC [LRO-Excl2-18] (Eterna round: R96, puzzle: Exclusion 2)
- apparent KD of MS2 coat protein (input ligand: FMN 200 uM): 0.0183 µM
- apparent KD of MS2 coat protein [1]: 0.0108 µM
- apparent KD of MS2 coat protein (input ligand: none): 0.0141 µM

Sequence: GUGCAAUGAGGAUAUACGUUGGUGAACAUCUGUGUGCUCCUACAUGAGGAUCACCCAUGUAGAAGGCAUGUCAC [LRO-Excl2-18] (puzzle: Exclusion 2)
- apparent KD of MS2 coat protein [2]: 0.0113 µM

Sequence: GUGCCGCGAGGAUAUACAGACGGGUCCAGUACGUGUCUGGGACUUGAGGAUCACCCAAGUAGAAGGCGUCUCAG [salish99_ex2_r4_613] (Eterna round: R97, puzzle: Exclusion 2)
- apparent KD of MS2 coat protein (input ligand: FMN 200 uM): 0.0399 µM
- apparent KD of MS2 coat protein (input ligand: none): 0.0446 µM

Sequence: GUGCGACAUGAGGAUCACCCAUGUCAGGAUAUAUAGAACGAUAACGAAAUCGUUAUCGGUAGAAGGGACGGUGA [Eternabot (L1) Solution 48] (Eterna round: R97, puzzle: Exclusion 1)
- apparent KD of MS2 coat protein (input ligand: FMN 200 uM): 0.0186 µM
- apparent KD of MS2 coat protein (input ligand: none): 0.0214 µM

Sequence: GUGCGCGGCUAGGAUAUUGUGGGUUUUUGUCUGCGAGAAGGAGCCACAUGAGGAUCACCCAUGUGGUGUUGCUC [salish99_ex6_r4_013] (Eterna round: R97, puzzle: Exclusion 6)
- apparent KD of MS2 coat protein (input ligand: FMN 200 uM): 0.22 µM
- apparent KD of MS2 coat protein (input ligand: none): 0.0636 µM

Sequence: GUGGUACAUGAGGAUCACCCAUGUUAGGAUAUCGCGUGAGGUUUUACUUACACACACACGAGAAGGGACGUCUU (puzzle: Exclusion 1)
- apparent KD of MS2 coat protein [2]: 0.0432 µM

Sequence: GUGGUACAUGAGGAUCACCCAUGUUAGGAUAUCGCGUGAGGUUUUACUUCCGCACGCGCGAGAAGGGACGUCUU (puzzle: Exclusion 1)
- apparent KD of MS2 coat protein [2]: 0.0289 µM

Sequence: GUGGUACAUGAGGAUCACCCAUGUUAGGAUAUCGCGUGGUUUUUUGCGGCCGCGCGCGCGAGAAGGGACGUCUU (puzzle: Exclusion 1)
- apparent KD of MS2 coat protein [2]: 0.0293 µM

Sequence: GUGUACAGAGGAUAUAUAUGGGCAUGGAAACAUGCAACUUCACAUGAGGAUCACCCAUGUAGAAGGCUGUACAC [Ex2: 712] (Eterna round: R96, puzzle: Exclusion 2)
- apparent KD of MS2 coat protein (input ligand: FMN 200 uM): 0.332 µM
- apparent KD of MS2 coat protein [1]: 0.023 µM
- apparent KD of MS2 coat protein (input ligand: none): 0.0289 µM

Sequence: GUGUACAGAGGAUAUGCACGAGUAGUUACGAAAGUAACUGCACAUGAGGAUCACCCAUGUAGAAGGCUGUACAC [Dot plot directed v4] (puzzle: Exclusion 2)
- apparent KD of MS2 coat protein [2]: 0.0154 µM
